Columns and labels:
[1] = test system: GST-Z2-AMPK×3 [GST: P08515]
[2] = test system: GST-Z1-AMPK×3 [GST: P08515]
[3] = test system: AMPK kinase substrate (GST fusion, Table 2) [GST: P08515]
GST-Abl×1 = test system: T1, GST-Abl×1
T1 sequence: AIYAAPF

[4] = test system: EGFR kinase substrate (GST fusion, Table 2) [GST: P08515]
[5] = test system: Abl kinase substrate (GST fusion, Table 2) [GST: P08515]
GST-Z2-Abl×1 = test system: T2, GST-Z2-Abl×1
T2 sequence: AIYAAPF

[6] = test system: CHK kinase substrate (GST fusion, Table 2) [GST: P08515]
[7] = test system: IKK kinase substrate (GST fusion, Table 2) [GST: P08515]
[8] = test system: Src kinase substrate (GST fusion, Table 2) [GST: P08515]
[9] = test system: dsDNAPK kinase substrate (GST fusion, Table 2) [GST: P08515]
[10] = test system: CK1 kinase substrate (GST fusion, Table 2) [GST: P08515]
[11] = test system: CK2 kinase substrate (GST fusion, Table 2) [GST: P08515]
[12] = test system: ERK kinase substrate (GST fusion, Table 2) [GST: P08515]
[13] = test system: JNK3 kinase substrate (GST fusion, Table 2) [GST: P08515]
[14] = test system: PKA kinase substrate (GST fusion, Table 2) [GST: P08515]
[15] = test system: GST-Z2-Src×2 [GST: P08515]
[16] = test system: GST-Z1-dsDNA×4 [GST: P08515]
[17] = test system: GST-dsDNA×4 [GST: P08515]
[18] = test system: GST-dsDNA×3 [GST: P08515]
[19] = test system: GST-dsDNA×2 [GST: P08515]
GST-dsDNA×1 = test system: T3, GST-dsDNA×1
T3 sequence: GGGEETQTQDQPMEEEEV

Chain of JNK3 (P53779 whole entry): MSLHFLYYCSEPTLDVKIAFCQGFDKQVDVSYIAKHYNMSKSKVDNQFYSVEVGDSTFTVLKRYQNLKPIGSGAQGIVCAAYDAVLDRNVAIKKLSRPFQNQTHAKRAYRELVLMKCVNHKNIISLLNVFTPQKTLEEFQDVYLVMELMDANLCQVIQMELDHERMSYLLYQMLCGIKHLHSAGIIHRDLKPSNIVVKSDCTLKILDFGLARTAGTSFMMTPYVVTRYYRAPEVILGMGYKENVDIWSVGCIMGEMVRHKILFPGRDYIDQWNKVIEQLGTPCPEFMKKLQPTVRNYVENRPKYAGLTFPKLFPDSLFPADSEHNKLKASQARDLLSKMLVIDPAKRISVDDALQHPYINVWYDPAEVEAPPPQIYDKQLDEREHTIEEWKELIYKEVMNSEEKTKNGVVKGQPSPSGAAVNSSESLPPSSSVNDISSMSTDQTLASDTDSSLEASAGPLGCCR

Question: AMPK was tested. Which “phosphorylation of the substrate on beads (32P-ATP, SDS-PAGE, autoradiogram; FIG. 6)” value (“phosphorylation of the substrate” for short) [1] did it give?
Answer: All of the protein kinase substrates reacted with their corresponding kinases

Question: And the “phosphorylation of the substrate” value [2]?
Answer: All of the protein kinase substrates reacted with their corresponding kinases

Question: What about the “Reactivity for each of the Kinase Substrates (32P phosphorylation, autoradiogram)” value (from here on “Reactivity for each”) [3] of the same substance?
Answer: +++++

Question: Abl was tested. Which “phosphorylation of the substrate” value (GST-Abl×1) did it give?
Answer: All of the protein kinase substrates reacted with their corresponding kinases

Question: What about the “Reactivity for each” value [4] of the same substance?
Answer: +++++

Question: And the “Reactivity for each” value [5]?
Answer: +++++

Question: What about the “Reactivity for each” value [3] of the same substance?
Answer: +++

Question: And the “phosphorylation of the substrate” value (GST-Z2-Abl×1)?
Answer: All of the protein kinase substrates reacted with their corresponding kinases

Question: Which results are given for CHK?
Answer: Reactivity for each of the Kinase Substrates (32P phosphorylation, autoradiogram) [6]: +++++; phosphorylation of the substrate on beads (32P-ATP, SDS-PAGE, autoradiogram; FIG. 6) (GST-CHK×5 [GST: P08515]): All of the protein kinase substrates reacted with their corresponding kinases

Question: How did the “phosphorylation of the substrate” value (GST-CK1×4 [GST: P08515]) turn out when CK1 was run?
Answer: All of the protein kinase substrates reacted with their corresponding kinases

Question: What about the “Reactivity for each” value [7] of the same substance?
Answer: +

Question: What about the “Reactivity for each” value [8] of the same substance?
Answer: +++++

Question: And the “Reactivity for each” value [9]?
Answer: +++++

Question: And the “Reactivity for each” value [10]?
Answer: +++++

Question: For CK2, which “phosphorylation of the substrate” value (GST-CK2×4 [GST: P08515]) is on record?
Answer: All of the protein kinase substrates reacted with their corresponding kinases

Question: And the “Reactivity for each” value [7]?
Answer: +

Question: What about the “Reactivity for each” value [11] of the same substance?
Answer: +++++

Question: Which “Reactivity for each” value [4] does the source give for EGFR here?
Answer: +++++

Question: What about the “phosphorylation in the 4-member substrate ladder on beads (32P-ATP, SDS-PAGE, autoradiogram; FIG. 12)” value (GST-EGFR×3 [GST: P08515]) of the same substance?
Answer: All of the protein kinase substrates reacted with their corresponding kinases, and cross-reactivity with other substrate was minimal

Question: What about the “phosphorylation of the substrate” value (GST-EGFR×3 [GST: P08515]) of the same substance?
Answer: All of the protein kinase substrates reacted with their corresponding kinases

Question: What about the “Reactivity for each” value [5] of the same substance?
Answer: +++++

Question: For IKK, which “Reactivity for each” value [12] is on record?
Answer: +

Question: What about the “Reactivity for each” value [7] of the same substance?
Answer: +++++

Question: What about the “Reactivity for each” value [13] of the same substance?
Answer: +

Question: And the “Reactivity for each” value [8]?
Answer: +

Question: What about the “phosphorylation in the 4-member substrate ladder on beads (32P-ATP, SDS-PAGE, autoradiogram; FIG. 12)” value (GST-IKK×7 [GST: P08515]) of the same substance?
Answer: All of the protein kinase substrates reacted with their corresponding kinases, and cross-reactivity with other substrate was minimal

Question: And the “phosphorylation of the substrate” value (GST-IKK×7 [GST: P08515])?
Answer: All of the protein kinase substrates reacted with their corresponding kinases

Question: And the “phosphorylation of the substrate” value (GST-IKK×4 [GST: P08515])?
Answer: All of the protein kinase substrates reacted with their corresponding kinases

Question: And the “Reactivity for each” value [10]?
Answer: +++++

Question: JNK3 was tested. Which “Reactivity for each” value [12] did it give?
Answer: +

Question: And the “Reactivity for each” value [13]?
Answer: +++++

Question: What about the “phosphorylation in the 4-member substrate ladder on beads (32P-ATP, SDS-PAGE, autoradiogram; FIG. 12)” value (GST-JNK3×8 [GST: P08515]) of the same substance?
Answer: All of the protein kinase substrates reacted with their corresponding kinases, and cross-reactivity with other substrate was minimal

Question: What about the “phosphorylation of the substrate” value (GST-JNK3×8 [GST: P08515]) of the same substance?
Answer: All of the protein kinase substrates reacted with their corresponding kinases

Question: What about the “phosphorylation of the substrate” value (GST-JNK3×3 [GST: P08515]) of the same substance?
Answer: All of the protein kinase substrates reacted with their corresponding kinases

Question: Which “phosphorylation of the substrate” value (GST-Z1-PKA [GST: P08515]) does the source give for PKA here?
Answer: All of the protein kinase substrates reacted with their corresponding kinases

Question: What about the “Reactivity for each” value [14] of the same substance?
Answer: +++++

Question: What about the “Reactivity for each” value [8] of the same substance?
Answer: +++++

Question: What about the “Reactivity for each” value [9] of the same substance?
Answer: +++++

Question: For Src, which “Reactivity for each” value [5] is on record?
Answer: +++++

Question: And the “Reactivity for each” value [3]?
Answer: +++

Question: And the “Reactivity for each” value [13]?
Answer: +

Question: And the “Reactivity for each” value [8]?
Answer: +++++

Question: What about the “phosphorylation in the 4-member substrate ladder on beads (32P-ATP, SDS-PAGE, autoradiogram; FIG. 12)” value [15] of the same substance?
Answer: All of the protein kinase substrates reacted with their corresponding kinases, and cross-reactivity with other substrate was minimal

Question: What about the “phosphorylation of the substrate” value [15] of the same substance?
Answer: All of the protein kinase substrates reacted with their corresponding kinases

Question: And the “Reactivity for each” value [10]?
Answer: +++++

Question: Which “Reactivity for each” value [14] does the source give for dsDNA (DNAPK) here?
Answer: +++++

Question: And the “phosphorylation of the substrate” value [16]?
Answer: All of the protein kinase substrates reacted with their corresponding kinases

Question: What about the “Reactivity for each” value [9] of the same substance?
Answer: +++++

Question: What about the “phosphorylation by dsDNA PK (32P ATP, SDS-PAGE, autoradiogram; FIG. 7)” value (from here on “phosphorylation by dsDNA PK”) [17] of the same substance?
Answer: autoradiogram of phosphorylated GST-dsDNA kinase peptide substrate fusion proteins with different number of the peptide repeats

Question: And the “phosphorylation by dsDNA PK” value [18]?
Answer: autoradiogram of phosphorylated GST-dsDNA kinase peptide substrate fusion proteins with different number of the peptide repeats

Question: What about the “phosphorylation by dsDNA PK” value [19] of the same substance?
Answer: autoradiogram of phosphorylated GST-dsDNA kinase peptide substrate fusion proteins with different number of the peptide repeats

Question: What about the “phosphorylation by dsDNA PK” value (GST-dsDNA×1) of the same substance?
Answer: autoradiogram of phosphorylated GST-dsDNA kinase peptide substrate fusion proteins with different number of the peptide repeats
